This passage reports 抗原結合活性 (relative antigen binding after 40℃ for 4 weeks against 4℃ for 4 weeks) results from patent JP2024028198A.

This test addresses ヒ卜PAD4(Cayman Chemical company、Cat. 10500) (human) (UniProt Q9UM07). Briefly: SPR Biacore T200, stored antibody captured on Protein A chip, human PAD4 at 50 nM as analyte.

A value given as a limit tells only on which side of the number the result lay.

Sequence of UniProt Q9UM07 (Q9UM07 whole entry): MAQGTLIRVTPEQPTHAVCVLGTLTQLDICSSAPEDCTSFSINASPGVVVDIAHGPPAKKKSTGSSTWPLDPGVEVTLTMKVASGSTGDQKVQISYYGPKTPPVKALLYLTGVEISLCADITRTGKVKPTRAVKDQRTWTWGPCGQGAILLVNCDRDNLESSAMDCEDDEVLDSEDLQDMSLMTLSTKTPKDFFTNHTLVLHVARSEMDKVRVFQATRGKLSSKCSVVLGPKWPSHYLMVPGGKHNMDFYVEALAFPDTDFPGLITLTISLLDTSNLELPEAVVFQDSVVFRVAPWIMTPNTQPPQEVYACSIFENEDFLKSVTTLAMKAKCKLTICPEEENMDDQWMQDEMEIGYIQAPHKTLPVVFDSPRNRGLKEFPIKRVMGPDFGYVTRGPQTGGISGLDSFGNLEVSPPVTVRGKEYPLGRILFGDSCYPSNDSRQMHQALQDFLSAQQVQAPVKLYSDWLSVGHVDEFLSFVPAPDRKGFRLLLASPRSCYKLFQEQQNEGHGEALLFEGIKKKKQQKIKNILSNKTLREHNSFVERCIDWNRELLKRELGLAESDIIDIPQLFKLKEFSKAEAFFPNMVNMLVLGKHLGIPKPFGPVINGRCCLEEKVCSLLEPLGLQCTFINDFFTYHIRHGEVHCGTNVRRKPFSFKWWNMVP

B1: 抗PAD4抗体2-1-47 (antibody, human IgG1, lambda, V domains shown)
VH: EVQLLESGGGLVQPGGSLRLSCAASGFTFSTYAMGWVRQAPGKGLEFVAAIRNDGSWTGYGTPYKTRFTISRDNSKNTLYLQMSSLRAEDTAVYYCAKYTGSSGGSIGAWGQGTLVTVSS
VL: SYELTQPPSVSVSPGQTARITCSGGNRNYYYGWYQQKPGQAPVTVIYANDKRPSGIPERFSGSNSGSTTTLTISGVQAEDEADYYCGTATTGKYVFGGGTKLTVLG
B1 came in with a 抗原結合活性 (relative antigen binding after 40℃ for 4 weeks against 4℃ for 4 weeks) above 90%.

B2: 抗PAD4抗体3-1-39 (antibody, human IgG1, lambda, V domains shown)
VH: EVQLLESGGGLVQPGGSLRLSCAASGFTFSTYAMGWVRQAPGKGLEFVAAIRNDGSWTGTSVNAKTRFTISRDNSKNTLYLQMSSLRAEDTAVYYCAKYTGSSGGSIGAWGQGTLVTVSS
VL: SYELTQPPSVSVSPGQTARITCSGGNRNYYYGWYQQKPGQAPVTVIYANDKRPSGIPERFSGSNSGSTTTLTISGVQAEDEADYYCGTATTGKYVFGGGTKLTVLG
Molecule B2 returned a 抗原結合活性 (relative antigen binding after 40℃ for 4 weeks against 4℃ for 4 weeks) above 90%.

B3: 抗PAD4抗体4-2-25 (antibody, human IgG1, lambda, V domains shown)
VH: EVQLLESGGGLVQPGGSLRLSCAASGFTFSTYAMGWVRQAPGKGLEFVAAIRNDGSWTGYPPPLKGRFTISRDNSKNTLYLQMSSLRAEDTAVYYCAKYTGSSGGSIGAWGQGTLVTVSS
VL: SYELTQPPSVSVSPGQTARITCSGGNRNYYYGWYQQKPGQAPVTVIYANDKRPSGIPERFSGSNSGSTTTLTISGVQAEDEADYYCGTAYTGKYVFGGGTKLTVLG
As for B3, the 抗原結合活性 (relative antigen binding after 40℃ for 4 weeks against 4℃ for 4 weeks) was above 90%.

B4: 抗PAD4抗体3-2-37 (antibody, human IgG1, lambda, V domains shown)
VH: EVQLLESGGGLVQPGGSLRLSCAASGFTFSTYAMGWVRQAPGKGLEFVAAIRNDGSWTGIGYNQKSRFTISRDNSKNTLYLQMSSLRAEDTAVYYCGKYTGSSGGSIGAWGQGTLVTVSS
VL: SYELTQPPSVSVSPGQTARITCSGGNRNYYYGWYQQKPGQAPVTVIYANDKRPSGIPERFSGSNSGSTTTLTISGVQAEDEADYYCGTALTGKYVFGGGTKLTVLG
In turn, B4 displayed a 抗原結合活性 (relative antigen binding after 40℃ for 4 weeks against 4℃ for 4 weeks) above 90%.
